# In PMC2905227 (Journal of the American Chemical Society, 2010):
# Substitutions are numbered along the chain they refer to.
# T1: [NO2Y730]-α2(Y731A) (E. coli, UniProt P00452 1-761, Y731A, 3-nitrotyrosine (NO2Y) in place of Y730)
# T1 sequence (looked up): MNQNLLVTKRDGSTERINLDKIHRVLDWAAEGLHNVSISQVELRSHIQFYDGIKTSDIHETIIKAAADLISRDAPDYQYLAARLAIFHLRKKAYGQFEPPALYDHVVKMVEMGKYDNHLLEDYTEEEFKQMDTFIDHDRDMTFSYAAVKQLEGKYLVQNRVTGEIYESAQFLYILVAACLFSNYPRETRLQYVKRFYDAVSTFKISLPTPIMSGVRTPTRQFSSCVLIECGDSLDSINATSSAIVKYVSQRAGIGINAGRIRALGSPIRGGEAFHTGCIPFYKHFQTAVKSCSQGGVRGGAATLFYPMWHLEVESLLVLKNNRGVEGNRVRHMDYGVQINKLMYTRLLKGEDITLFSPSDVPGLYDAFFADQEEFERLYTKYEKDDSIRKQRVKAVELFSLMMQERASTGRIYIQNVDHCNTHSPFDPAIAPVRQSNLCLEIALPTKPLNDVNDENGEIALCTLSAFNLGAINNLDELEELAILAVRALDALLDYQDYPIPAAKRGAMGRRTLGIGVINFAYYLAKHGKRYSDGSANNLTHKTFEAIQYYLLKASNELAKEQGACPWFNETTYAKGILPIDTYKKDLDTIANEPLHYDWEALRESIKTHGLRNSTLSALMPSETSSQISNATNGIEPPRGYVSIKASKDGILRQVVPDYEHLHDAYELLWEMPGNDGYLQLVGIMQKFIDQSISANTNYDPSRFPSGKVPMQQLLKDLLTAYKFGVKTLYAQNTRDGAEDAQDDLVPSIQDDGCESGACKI
# T2: [NO2Y730]-α2(C439S) (E. coli, UniProt P00452 1-761, C439S, 3-nitrotyrosine (NO2Y) in place of Y730)
# T2 sequence (looked up): T1 sequence (looked up) with C439S, A731Y
# T3: [NO2Y730]-α2(C439A) (E. coli, UniProt P00452 1-761, C439A, 3-nitrotyrosine (NO2Y) in place of Y730)
# T3 sequence (looked up): T1 sequence (looked up) with C439A, A731Y
# B1: wild-type E. coli ribonucleotide reductase β2 subunit (enzyme, UniProt P69924 1-376, looked up)
# chain: MAYTTFSQTKNDQLKEPMFFGQPVNVARYDQQKYDIFEKLIEKQLSFFWRPEEVDVSRDRIDYQALPEHEKHIFISNLKYQTLLDSIQGRSPNVALLPLISIPELETWVETWAFSETIHSRSYTHIIRNIVNDPSVVFDDIVTNEQIQKRAEGISSYYDELIEMTSYWHLLGEGTHTVNGKTVTVSLRELKKKLYLCLMSVNALEAIRFYVSFACSFAFAERELMEGNAKIIRLIARDEALHLTGTQHMLNLLRSGADDPEMAEIAEECKQECYDLFVQAAQQEKDWADYLFRDGSMIGLNKDILCQYVEYITNIRMQAVGLDLPFQTRSNPIPWINTWLVSDNVQVAPQEVEVSSYLVGQIDSEVDTDDLSNFQL
# modifications: tyrosyl radical at Y122 (1-1.2 radicals per β2), diferric cluster
# What was measured:
# Experiment in all cases: competitive inhibition of enzyme activity
# [NO2Y730]-α2(Y731A) = target: T1, [NO2Y730]-α2(Y731A)
# [NO2Y730]-α2(C439S) = target: T2, [NO2Y730]-α2(C439S)
# [NO2Y730]-α2(C439A) = target: T3, [NO2Y730]-α2(C439A)
binder,measurement,setting,value
B1,Kd,[NO2Y730]-α2(Y731A),2710 ± 130 nM
same,Kd,[NO2Y730]-α2(C439S),1280 ± 70 nM
same,Kd,[NO2Y730]-α2(C439A),2070 ± 70 nM
